Assay results published in patent US9090549B2, “1,4-naphthoquinones derivatives and therapeutic use thereof” (CENTRE NATIONAL DE LA RECHERCHE SCIENTIFIQUE (C.N.R.S.), priority 2008, dated 2015).

Substrate: CC1=C(C(=O)c2ccc(Br)cc2)C(=O)C2C=CC=CC2C1=O
Assay: 1,4-Naphthoquinone reductase activity of P. falciparum glutathione reductase
Format: biochemical, Plasmodium falciparum
Conditions: other: pH 6.9, 100 μM NADPH, 1% DMSO
Procedure: The reduction assay mixture consisted of 100 mM potassium phosphate buffer pH 6.9, 200 mM KCl, 1 mM EDTA and 100 μM NADPH in a total volume of 1 mL. 1,4-naphthoquinone reductase activity was determined by recording the initial velocities in the presence of increasing naphthoquinone concentrations (0-300 μM). The 1,4-naphthoquinone was first dissolved in DMSO, and a final 1% DMSO concentration was kept constant in the 1,4-naphthoquinone reductase assay. For the determination of KM and Vmax values, the steady-state rates were fitted by using nonlinear regression analysis software (Kaleidagraph) to the Michaelis-Menten equation. From these values, the turnover number kcat and the catalytic efficiency kcat/KM were calculated.

B1: P. falciparum glutathione reductase (PfGR) (Plasmodium falciparum K1) (protein)
chain: VYDLIVIGGGSGGMAAARRAARHNAKVALVEKSRLGGTCVNVGCVPKKIMFNAASVHDILENSRHYGFDTKFSFNLPLLVERRDKYIQRLNNIYRQNLSKDKVDLYEGTASFLSENRILIKGTKDNNNKDNGPLNEEILEGRNILIAVGNKPVFPPVKGIENTISSDEFFNIKESKKIGIVGSGYIAVELINVIKRLGIDSYIFARGNRILRKFDESVINVLENDMKKNNINIVTFADVVEIKKVSDKNLSIHLSDGRIYEHFDHVIYCVGRSPDTENLKLEKLNVETNNNYIVVDENQRTSVNNIYAVGDCCMVKKSKEIEDLNLLKLYNEERYLNKKENVTEDIFYNVQLTPVAINAGRLLADRLFLKKTRKTNYKLIPTVIFSHPPIGTIGLSEEAAIQIYGKENVKIYESKFTNLFFSVYDIEPELKEKTYLKLVCVGKDELIKGLHIIGLNADEIVQGFAVALKMNATKKDFDETIPIHPTAAEEFLTLQPWMK
Km: 6.1 µM
